Assay results as given in patent US20240150449A1 (MABYLON, published 2024).

Molecular target: T1, recombinant non-phosphorylated full-length TDP-43 (human, UniProt Q13148 1-414)
T1 construct: Bought recombinant protein; also called non-pathological full-length TDP-43; recombinantly expressed full-length TDP-43 (OriGene Technologies)
Assay: ELISA, antigen coated
Method: Plates were washed with PBS-Tween 0.05% and blocked 1 h at room temperature with PBS containing 5% Milk (Rapilait, Migros, Zurich, Switzerland) or 2% bovine serum albumin (BSA, Sigma-Aldrich Chemie GmbH, Buchs, Switzerland). Patient sera, B cell conditioned medium, or recombinant antibody preparations were incubated for 2 h at room temperature. Binding of human IgG to the antigen of interest was determined using a HRP-conjugated anti human antibody (anti-IgG-HRP from Jackson ImmunoResearch, West Grove, PA, USA) followed by measurement of the HRP activity using a tetramethylbenzidine substrate solution (TMB, Sigma-Aldrich Chemie GmbH, Buchs, Switzerland).

T1 sequence (Q13148 whole entry): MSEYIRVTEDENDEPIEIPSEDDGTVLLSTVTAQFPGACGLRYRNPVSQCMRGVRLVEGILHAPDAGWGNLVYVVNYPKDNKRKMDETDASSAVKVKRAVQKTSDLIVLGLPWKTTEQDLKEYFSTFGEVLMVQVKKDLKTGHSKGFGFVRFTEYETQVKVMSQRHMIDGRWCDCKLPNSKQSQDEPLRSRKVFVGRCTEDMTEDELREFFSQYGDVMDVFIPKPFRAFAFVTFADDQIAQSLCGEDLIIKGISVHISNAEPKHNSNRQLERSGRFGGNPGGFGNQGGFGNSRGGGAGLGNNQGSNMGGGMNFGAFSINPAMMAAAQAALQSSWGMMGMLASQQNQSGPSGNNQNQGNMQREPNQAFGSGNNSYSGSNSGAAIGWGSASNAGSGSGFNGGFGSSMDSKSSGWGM

B1: antibody 15D7 (human IgG) (antibody, V domains shown)
VH: EVQLVESGGGLVQPGGSLRLSCSASGFTFGNYAMHWVRQAPGKGLEYVSAMSSNGGSTYYGDSVKGRFTISRDNSKNTLYLQMSSLRAEDTAVYYCVTRGRKAPSLYYFDCWGPGTLVTVSS
VL: not shown
notes: Recombinant human IgG
**Q.** Does B1 bind?
**A.** Result: no binding
